Here are results for 76 sequences from the supplement of paper PMC7877785.

± gives the uncertainty stated by the source.

This data set is described as follows: self-splicing fitness, log relative to wild type (ln ratio); higher = more splicing; Tetrahymena group I intron in knt gene, E. coli kanamycin selection, DiMSum; sequences stand for … in CUCUCU…GGAGGGAAAAGUUAUCAGGCAUGCACCUGGUAGCUAGUCUUUAAACCAAUAGAUUGCAUCGGUUUAAAAGGCAAGACCGUCAAAUUGCGGGAAAGGGGUCAACAGCCGUUCAGUACCAAGUCUCAGGGGAAACUUUGAGAUGGCCUUGCAAAGGGUAUGGUAAUAAGCUGACGGACAUGGUCCUAACCACGCAGCCAAGUCCUAAGUCAACAGAUCUUCUGUUGAUAUGGAUGCAGUUCACAGACUAAAUGUCGGUCGGGGAAGAUGUAUUCUUCUCAUAAGAUAUAGUCGGACCUCUCCUUAAUGGGAGCUAGCGGAUGAAGUGAUGCAACACUGGAGCCGCUGGGAACUAAUUUGUAUGCGAAAGUAUAUUGAUUAGUUUUGGAGUACUCGUGGUCG
The procedure, abridged: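 A randomised library covering all eight P1ex-region intron nucleotides was built with the intron in the knt kanamycin-resistance gene on pET-22b(+) and held in E. coli BL21(DE3). Cells were grown overnight at 37°C or 30°C on LB agar, with or without 25 μg/mL kanamycin, plus 100 μg/mL carbenicillin, 50 μM IPTG and 0.2% rhamnose, and pooled colonies were amplicon-sequenced on an Illumina HiSeq 2500. DiMSum fitness is the error-weighted combination of wild-type-normalised replicate fold changes, kanamycin versus none.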

Turning to GCCCAGCAAUAUUACGGUAG, the “self-splicing fitness (ln)” value (30 °C) was -4.78 ± 0.23 and the “self-splicing fitness (ln)” value (37 °C) is -2.51 ± 0.19.
The matching figures for AUGCAGCAAUAUUACGUAUA: -2.57 ± 0.27 and -1.6 ± 0.16.
The matching figures for GUCCAGCAAUAUUACGCGCU: -2.67 ± 0.25 and -2.51 ± 0.31.
For CAUUAGCAAUAUUACGGCCG, in that order: 0.721 ± 0.13 and 0.409 ± 0.14.
On to GGCUAGCAAUAUUACGCUCA, for which the “self-splicing fitness (ln)” value is -2.07 ± 0.33 (30 °C) and -0.183 ± 0.25 (37 °C).
For the sequence CACCAGCAAUAUUACGCCGA, the “self-splicing fitness (ln)” value was -2.88 ± 0.19 (30 °C) and -1.86 ± 0.21 (37 °C).
For the sequence CUUCAGCAAUAUUACGGCGC, the “self-splicing fitness (ln)” value reads like this: (30 °C) -3.07 ± 0.13; (37 °C) -3.29 ± 0.19.
The matching figures for GCUCAGCAAUAUUACGUGAA: -0.113 ± 0.063 and 0.231 ± 0.077.
For UAGAAGCAAUAUUACGGAUG, in that order: -1.41 ± 0.099 and -0.694 ± 0.12.
For the sequence CUGUAGCAAUAUUACGUUUG, the “self-splicing fitness (ln)” value reads like this: (30 °C) -1.44 ± 0.085; (37 °C) -0.284 ± 0.1.
For GUCUAGCAAUAUUACGAAGA, in that order: -3.16 ± 0.24 and -2.24 ± 0.2.
For AGAAAGCAAUAUUACGGCGA, in that order: -0.0252 ± 0.17 and -1.02 ± 0.14.
For UUGAAGCAAUAUUACGCAGA, in that order: -0.643 ± 0.13 and 0.228 ± 0.11.
For the sequence GAGAAGCAAUAUUACGUAGC, the “self-splicing fitness (ln)” value reads like this: (30 °C) -3.47 ± 0.35; (37 °C) -0.876 ± 0.21.
For GAAUAGCAAUAUUACGGUAC, in that order: -1.1 ± 0.13 and -0.802 ± 0.2.
For UAAGAGCAAUAUUACGGAGU, the “self-splicing fitness (ln)” value runs as follows: (30 °C) -3.26 ± 0.23; (37 °C) -2.21 ± 0.25.
The matching figures for GGAAAGCAAUAUUACGGCCG: -0.751 ± 0.12 and -0.566 ± 0.16.
The matching figures for AUCGAGCAAUAUUACGACUG: -2.17 ± 0.13 and -1.64 ± 0.15.
The matching figures for CCUAAGCAAUAUUACGCCAU: -4.47 ± 0.46 and -2.48 ± 0.34.
As for CGACAGCAAUAUUACGCUUC, for the setting “37 °C”, the “self-splicing fitness (ln)” value was -3.09 ± 0.43.
As for AUUGAGCAAUAUUACGCUGC, the “self-splicing fitness (ln)” value reads like this: (30 °C) -3.62 ± 0.47; (37 °C) -1.77 ± 0.41.
For AUUCAGCAAUAUUACGCGCA, in that order: -0.00177 ± 0.12 and -0.315 ± 0.12.
On to UGCAAGCAAUAUUACGUCUG, for which the “self-splicing fitness (ln)” value was -1.34 ± 0.08 (30 °C) and -0.432 ± 0.1 (37 °C).
The matching figures for CUGUAGCAAUAUUACGGCAU: -3.45 ± 0.31 and -1.86 ± 0.27.
For the sequence GCUCAGCAAUAUUACGCUCA, the “self-splicing fitness (ln)” value by setting is: (30 °C) -1.59 ± 0.11; (37 °C) -0.171 ± 0.11.
Regarding UCUGAGCAAUAUUACGAACA, the “self-splicing fitness (ln)” value (30 °C) was -3.18 ± 0.34 and the “self-splicing fitness (ln)” value (37 °C) is -3.46 ± 0.35.
For the sequence CUGAAGCAAUAUUACGGGGU, the “self-splicing fitness (ln)” value reads like this: (30 °C) -3.34 ± 0.24; (37 °C) -0.289 ± 0.17.
Turning to GCUGAGCAAUAUUACGCGCG, the “self-splicing fitness (ln)” value (30 °C) is -0.818 ± 0.16 and the “self-splicing fitness (ln)” value (37 °C) was -0.503 ± 0.19.
For GACGAGCAAUAUUACGGGCG, in that order: -3.8 ± 0.27 and -1.08 ± 0.17.
On to AGGGAGCAAUAUUACGUAAU, for which the “self-splicing fitness (ln)” value (37 °C) was -2.05 ± 0.26.
The same measure, in the same setting: to UUAGAGCAAUAUUACGAGUU belongs -2.05 ± 0.39.
Take AGGAAGCAAUAUUACGGAUC: the “self-splicing fitness (ln)” value (30 °C) is -1.75 ± 0.16 and the “self-splicing fitness (ln)” value (37 °C) was -1.02 ± 0.22.
The matching figures for CGAUAGCAAUAUUACGGUUU: -3.43 ± 0.15 and -0.7 ± 0.1.
For GGACAGCAAUAUUACGAUAU, in that order: -1.67 ± 0.08 and -0.201 ± 0.086.
For the sequence CGACAGCAAUAUUACGGUCA, the “self-splicing fitness (ln)” value reads like this: (30 °C) -0.168 ± 0.083; (37 °C) 0.276 ± 0.1.
For CCCCAGCAAUAUUACGCAAC, in that order: -3.54 ± 0.14 and -2.48 ± 0.15.
For UGACAGCAAUAUUACGUACU, in that order: -0.423 ± 0.064 and 0.165 ± 0.085.
For UAAGAGCAAUAUUACGUGAC, in that order: -3.63 ± 0.27 and -2.8 ± 0.34.
For ACCCAGCAAUAUUACGAACU, the “self-splicing fitness (ln)” value reads like this: (30 °C) -1.33 ± 0.11; (37 °C) -0.29 ± 0.13.
The matching figures for CGAAAGCAAUAUUACGGCAC: -2.6 ± 0.15 and 0.387 ± 0.21.
The matching figures for GAAGAGCAAUAUUACGUUGA: -3.21 ± 0.19 and -2.63 ± 0.2.
Consider UCUGAGCAAUAUUACGAUAA, for which, under “37 °C”, the “self-splicing fitness (ln)” value was -2.05 ± 0.43.
On to AACCAGCAAUAUUACGCUCU, for which the “self-splicing fitness (ln)” value is -0.0812 ± 0.054 (30 °C) and 0.0106 ± 0.07 (37 °C).
The matching figures for CAGCAGCAAUAUUACGCUUG: -2.88 ± 0.12 and -2.61 ± 0.19.
For GGGAAGCAAUAUUACGAGUU, in that order: -2.86 ± 0.15 and -1.02 ± 0.099.
For ACUUAGCAAUAUUACGGCCG, in that order: -0.516 ± 0.071 and -0.251 ± 0.11.
With AUUCAGCAAUAUUACGUUAC, the “self-splicing fitness (ln)” value is, setting by setting: (30 °C) -2.76 ± 0.17; (37 °C) -1.2 ± 0.12.
For GGGUAGCAAUAUUACGGUAU, in that order: -2.11 ± 0.13 and -0.598 ± 0.14.
The matching figures for CCCAAGCAAUAUUACGCUUU: -3.91 ± 0.2 and -1.85 ± 0.17.
Consider AAACAGCAAUAUUACGGGAU, for which the “self-splicing fitness (ln)” value by setting is: (30 °C) -2.65 ± 0.1; (37 °C) -1.69 ± 0.087.
The matching figures for UAAUAGCAAUAUUACGGUUG: -0.0942 ± 0.085 and -0.0839 ± 0.091.
The matching figures for UACCAGCAAUAUUACGUUUU: -1.51 ± 0.094 and -2.37 ± 0.15.
The matching figures for CCAUAGCAAUAUUACGCCGU: -4.03 ± 0.34 and -1.91 ± 0.35.
Consider ACUCAGCAAUAUUACGAUUU, for which the “self-splicing fitness (ln)” value was determined as 0.00163 ± 0.057 (30 °C) and 0.417 ± 0.073 (37 °C).
Take GGGCAGCAAUAUUACGGCGA: the “self-splicing fitness (ln)” value (30 °C) was -0.562 ± 0.11 and the “self-splicing fitness (ln)” value (37 °C) is -0.245 ± 0.099.
For AAACAGCAAUAUUACGUCUU, in that order: -0.362 ± 0.054 and 0.322 ± 0.071.
The matching figures for GUAAAGCAAUAUUACGGAAG: -2.86 ± 0.18 and -1.36 ± 0.15.
For UCGUAGCAAUAUUACGAGCG, in that order: -0.988 ± 0.14 and -1.13 ± 0.21.
As to GCCAAGCAAUAUUACGUGGU, the “self-splicing fitness (ln)” value runs as follows: (30 °C) -3.65 ± 0.13; (37 °C) -3.27 ± 0.17.
Take CUGAAGCAAUAUUACGAAUG: the “self-splicing fitness (ln)” value (30 °C) was -0.544 ± 0.083 and the “self-splicing fitness (ln)” value (37 °C) was 0.252 ± 0.12.
The matching figures for CGGCAGCAAUAUUACGCCUA: -0.162 ± 0.17 and 0.427 ± 0.13.
The matching figures for UCUGAGCAAUAUUACGCUCG: -3.7 ± 0.37 and -0.349 ± 0.23.
For UAAAAGCAAUAUUACGUAAU, in that order: -2.6 ± 0.12 and -1.08 ± 0.13.
UGAUAGCAAUAUUACGGAGA: the “self-splicing fitness (ln)” value is, setting by setting: (30 °C) -2.83 ± 0.33; (37 °C) -1.68 ± 0.42.
With CUAAAGCAAUAUUACGGGGA, the “self-splicing fitness (ln)” value runs as follows: (30 °C) -3.4 ± 0.16; (37 °C) -1.96 ± 0.16.
The matching figures for AUCAAGCAAUAUUACGCGUG: -2.23 ± 0.08 and -0.744 ± 0.084.
Consider CCUCAGCAAUAUUACGACAU, for which the “self-splicing fitness (ln)” value reads like this: (30 °C) -3.84 ± 0.024; (37 °C) -2.84 ± 0.039.
Take CUGUAGCAAUAUUACGUGAA: for the setting “37 °C”, the “self-splicing fitness (ln)” value was -2.71 ± 0.29.
CACGAGCAAUAUUACGAGGU: the “self-splicing fitness (ln)” value runs as follows: (30 °C) -4.07 ± 0.28; (37 °C) -3.23 ± 0.28.
For UUGUAGCAAUAUUACGUCCG, in that order: -1.24 ± 0.12 and -0.388 ± 0.18.
For GUUGAGCAAUAUUACGGUUA, in that order: -1.88 ± 0.28 and -2.09 ± 0.24.
For AUGAAGCAAUAUUACGAACG, in that order: -0.583 ± 0.094 and 0.0323 ± 0.12.
On to CACUAGCAAUAUUACGAUGG, for which the “self-splicing fitness (ln)” value was -0.786 ± 0.062 (30 °C) and -0.324 ± 0.084 (37 °C).
The matching figures for UGCUAGCAAUAUUACGUCAG: -2.36 ± 0.12 and -1.33 ± 0.12.
The matching figures for ACGGAGCAAUAUUACGCACA: -2.08 ± 0.36 and -2.46 ± 0.37.
The matching figures for AGUAAGCAAUAUUACGCUCG: -0.783 ± 0.17 and -0.584 ± 0.21.
